In patent US20100150834A1, “HIGH AFFINITY EPHB RECEPTOR BINDING COMPOUNDS AND METHODS OF USE THEREOF” (priority 2006, published 2010):

Assays:
[1] = target: murine EphB4-Alkaline Phosphatase (murine) (UniProt P54761); assay: ELISA binding curve: TNYL-RAW Fc immobilised, increasing volumes of murine EphB4 AP, OD405; one experiment
[2] = target: murine EphB4-Alkaline Phosphatase (murine) (UniProt P54761); assay: competition ELISA: murine EphB4-AP binding to immobilised murine ephrin-B2-Fc
murine EphB4-Fc (murine) = murine EphB4-Fc (murine) (UniProt P54761); assay: ELISA: murine EphB4-Fc on protein A plates, biotinylated peptide detected with streptavidin-HRP
murine EphB4-Fc (murine), sequence (P54761 16-539 limits assumed): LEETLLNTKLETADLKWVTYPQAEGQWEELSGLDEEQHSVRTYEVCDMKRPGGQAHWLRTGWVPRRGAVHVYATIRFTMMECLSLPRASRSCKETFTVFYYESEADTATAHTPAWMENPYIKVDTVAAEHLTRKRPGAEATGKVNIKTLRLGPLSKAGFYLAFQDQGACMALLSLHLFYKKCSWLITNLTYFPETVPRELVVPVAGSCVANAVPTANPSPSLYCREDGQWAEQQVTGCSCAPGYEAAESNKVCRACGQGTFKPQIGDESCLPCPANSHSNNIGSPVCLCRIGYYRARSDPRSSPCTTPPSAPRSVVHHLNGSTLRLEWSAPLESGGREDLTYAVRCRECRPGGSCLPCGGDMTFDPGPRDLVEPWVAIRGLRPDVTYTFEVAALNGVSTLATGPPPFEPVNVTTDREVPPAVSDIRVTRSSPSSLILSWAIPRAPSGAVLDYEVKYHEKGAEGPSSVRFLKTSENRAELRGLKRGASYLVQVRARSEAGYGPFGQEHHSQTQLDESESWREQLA

murine EphB4-Alkaline Phosphatase (murine), sequence (P54761 16-539): as the sequence (P54761 16-539 limits assumed) above

Kd [1] [nM]	IC50 [2] [nM]	Kd (murine EphB4-Fc (murine)) [nM]	Substance
10	–	–	TNYL-RAW Fc fusion protein
–	7	0.9	PEG 3.4 kDa-linked TNYL-RAW-biotin dimer (peptide)
–	9	0.9	PEG 10 kDa-linked TNYL-RAW-biotin dimer (peptide)
–	21	1.4	TNYL-RAW-biotin coupled to monofunctional 10 kDa PEG (monomer) (peptide)
